Among the data in US20110039257A1 are decrease in luminescence (luciferase activity) with versus without Akt1/PKB values, retold here.

The target of this experiment is Akt1/PKB alpha recombinant enzyme (Upstate Biotechnology). Description: cell-based or functional assay.
Sequence of Akt1/PKB alpha recombinant enzyme (Upstate Biotechnology) (P31749 whole entry): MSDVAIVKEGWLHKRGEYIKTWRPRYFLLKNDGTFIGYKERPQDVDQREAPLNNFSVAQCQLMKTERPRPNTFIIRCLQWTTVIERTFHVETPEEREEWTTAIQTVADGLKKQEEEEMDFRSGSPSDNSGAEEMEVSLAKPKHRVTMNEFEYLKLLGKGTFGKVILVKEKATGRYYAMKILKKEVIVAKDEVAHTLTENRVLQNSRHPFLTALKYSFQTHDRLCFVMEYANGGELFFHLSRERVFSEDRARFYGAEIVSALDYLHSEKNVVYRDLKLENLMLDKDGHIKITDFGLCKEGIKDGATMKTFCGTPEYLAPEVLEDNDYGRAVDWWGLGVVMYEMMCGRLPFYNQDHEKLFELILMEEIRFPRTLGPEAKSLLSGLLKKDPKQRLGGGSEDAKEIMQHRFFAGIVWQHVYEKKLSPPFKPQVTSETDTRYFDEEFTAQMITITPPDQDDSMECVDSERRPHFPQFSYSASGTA

B1: CPM firefly luciferase serine/threonine kinase biosensor, construct pBFB340: Met-(Luc2.0 A-544)-(linker X)-…-(…)-(Rad53p FHA2 domain)-(linker Y)-(Luc2.0 4-B) (protein, part only; not given: luciferase fragments and linkers, part only)
chain, part: RKRDRLGTLGIGGSSGGGSGGGGSGGGNGRFLTLKPLPDSIIQESLEIQQGVNPFFIGRSEDCNCKIEDNRLSRVHCFIFKKRHAVGKSMYESPAQGLDDIWYCHTGTNVSYLNNNRMIQGTKFLLQDGDEIKIIWDKNNKFVIGFKVEINDTTGLFNEGLGMLQEQRVVLKQTAEEKDLVKKL
In the case of B1, the decrease in luminescence (luciferase activity) with versus without Akt1/PKB was 50%.
